Data published in article PMC9675693, “Production and characterisation of modularly deuterated UBE2D1–Ub conjugate by small angle neutron and X-ray scattering” (European Biophysics Journal, 2022).

Biological target: the molecule itself
Assay: SDS-PAGE; purified hE2 on an SDS-PAGE gel; additional band of ~25 kDa

B1: human Ubiquitin-conjugating enzyme UBE2D1 with point mutations S22R, C85K and D87S, hydrogenated (enzyme)
chain: not shown
notes: Ubiquitin-conjugating enzyme UBE2D1, human, with S22R, C85K and D87S; In the SAS experiment (a1) K85 of this chain is joined by an isopeptide bond to G76 of dUb; also called hE2; not shown: His6, N-terminal, cleaved
B1: binds.
